In experiment [1] the target is T1, human IL-15Rα (human, UniProt Q13261 31-205, limits assumed).
T1 construct: also called hIL-15Rα; IL-15 receptor alpha
The experiment in a line: SPR, steady state. Background: In SPR one partner is held on a chip, and binding of the other changes the refractive index at the surface.

The target of experiment [2] is T2, human IL-2Rβ (human, UniProt P14784 27-240, limits assumed).
T2 construct: also called hIL-2Rβ; IL-2 receptor beta
T2 sequence (looked up): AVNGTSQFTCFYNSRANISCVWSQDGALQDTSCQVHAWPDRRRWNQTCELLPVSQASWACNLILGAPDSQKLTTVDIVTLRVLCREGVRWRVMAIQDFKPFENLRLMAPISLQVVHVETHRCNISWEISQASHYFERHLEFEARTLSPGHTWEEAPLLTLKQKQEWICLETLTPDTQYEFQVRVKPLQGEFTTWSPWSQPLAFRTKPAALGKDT
The experiment in a line: SPR, steady state.

T1 sequence (Q13261 31-205 limits assumed): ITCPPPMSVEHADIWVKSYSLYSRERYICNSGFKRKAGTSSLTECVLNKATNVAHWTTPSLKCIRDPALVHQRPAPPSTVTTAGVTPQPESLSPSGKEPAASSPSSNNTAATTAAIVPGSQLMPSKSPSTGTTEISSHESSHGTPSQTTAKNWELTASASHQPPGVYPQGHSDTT

B1: hIL-15 V49R/N1A (ligand)
chain: AWVNVISDLKKIEDLIQSMHIDATLYTESDVHPSCKVTAMKCFLLELQRISLESGDASIHDTVENLIILANNSLSSNGNVTESGCKECEELEEKNIKEFLQSFVHIVQMFINTGGGGSGHHHHHHHHGGGLNDIFEAQKIEWHE
For orientation: Kd means the concentration at which binding is half-saturated. Read a high Kd as lower affinity. Take B1: the Kd in experiment [1] came to 175 nM; in experiment [2], 398 nM.

B2: hIL-15 V49R/N4Q (ligand)
chain: NWVQVISDLKKIEDLIQSMHIDATLYTESDVHPSCKVTAMKCFLLELQRISLESGDASIHDTVENLIILANNSLSSNGNVTESGCKECEELEEKNIKEFLQSFVHIVQMFINTGGGGSGHHHHHHHHGGGLNDIFEAQKIEWHE
Turning to B2, the Kd was 59.5 nM in experiment [1] and more than 500 nM in experiment [2].

B3: hIL-15 V49R/N65D (ligand)
chain: NWVNVISDLKKIEDLIQSMHIDATLYTESDVHPSCKVTAMKCFLLELQRISLESGDASIHDTVEDLIILANNSLSSNGNVTESGCKECEELEEKNIKEFLQSFVHIVQMFINTGGGGSGHHHHHHHHGGGLNDIFEAQKIEWHE
B3: the Kd in experiment [1] is 121 nM; in experiment [2], more than 500 nM.

B4: hIL-15 V49R/Q108A (ligand)
chain: NWVNVISDLKKIEDLIQSMHIDATLYTESDVHPSCKVTAMKCFLLELQRISLESGDASIHDTVENLIILANNSLSSNGNVTESGCKECEELEEKNIKEFLQSFVHIVAMFINTGGGGSGHHHHHHHHGGGLNDIFEAQKIEWHE
With B4, the values for the Kd in experiment [1] and in experiment [2] were 161 nM and 462 nM, respectively.

B5: hIL-15 V49R/N4D (ligand)
chain: NWVDVISDLKKIEDLIQSMHIDATLYTESDVHPSCKVTAMKCFLLELQRISLESGDASIHDTVENLIILANNSLSSNGNVTESGCKECEELEEKNIKEFLQSFVHIVQMFINTGGGGSGHHHHHHHHGGGLNDIFEAQKIEWHE
With B5, the Kd is 103 nM in experiment [1] and 365 nM in experiment [2].

B6: hIL-15 V49R/N4G (ligand)
chain: NWVGVISDLKKIEDLIQSMHIDATLYTESDVHPSCKVTAMKCFLLELQRISLESGDASIHDTVENLIILANNSLSSNGNVTESGCKECEELEEKNIKEFLQSFVHIVQMFINTGGGGSGHHHHHHHHGGGLNDIFEAQKIEWHE
Turning to B6, the figures for the equilibrium dissociation constant (Kd) in experiment [1] and in experiment [2] were 105 nM and more than 500 nM, respectively.

B7: hIL-15 V49R/N4W (ligand)
chain: NWVWVISDLKKIEDLIQSMHIDATLYTESDVHPSCKVTAMKCFLLELQRISLESGDASIHDTVENLIILANNSLSSNGNVTESGCKECEELEEKNIKEFLQSFVHIVQMFINTGGGGSGHHHHHHHHGGGLNDIFEAQKIEWHE
With B7, the Kd in experiment [1] stood at 143 nM; in experiment [2], 438 nM.

B8: hIL-15 V49R/N1G (ligand)
chain: GWVNVISDLKKIEDLIQSMHIDATLYTESDVHPSCKVTAMKCFLLELQRISLESGDASIHDTVENLIILANNSLSSNGNVTESGCKECEELEEKNIKEFLQSFVHIVQMFINTGGGGSGHHHHHHHHGGGLNDIFEAQKIEWHE
For B8, the figures for the Kd in experiment [1] and in experiment [2] were 160 nM and more than 500 nM, respectively.

B9: hIL-15 V49R/N72D (ligand)
chain: NWVNVISDLKKIEDLIQSMHIDATLYTESDVHPSCKVTAMKCFLLELQRISLESGDASIHDTVENLIILANDSLSSNGNVTESGCKECEELEEKNIKEFLQSFVHIVQMFINTGGGGSGHHHHHHHHGGGLNDIFEAQKIEWHE
Regarding B9, the Kd in experiment [1] is 105 nM; in experiment [2], 101 nM.

B10: hIL-15 V49R/N1E (ligand)
chain: EWVNVISDLKKIEDLIQSMHIDATLYTESDVHPSCKVTAMKCFLLELQRISLESGDASIHDTVENLIILANNSLSSNGNVTESGCKECEELEEKNIKEFLQSFVHIVQMFINTGGGGSGHHHHHHHHGGGLNDIFEAQKIEWHE
For the molecule B10, the Kd in experiment [1] was 171 nM; in experiment [2], 340 nM.

B11: hIL-15 V49R/N72A (ligand)
chain: NWVNVISDLKKIEDLIQSMHIDATLYTESDVHPSCKVTAMKCFLLELQRISLESGDASIHDTVENLIILANASLSSNGNVTESGCKECEELEEKNIKEFLQSFVHIVQMFINTGGGGSGHHHHHHHHGGGLNDIFEAQKIEWHE
For B11, the Kd in experiment [1] is 117 nM; in experiment [2] it was 148 nM.

B12: hIL-15 V49R/N4A (ligand)
chain: NWVAVISDLKKIEDLIQSMHIDATLYTESDVHPSCKVTAMKCFLLELQRISLESGDASIHDTVENLIILANNSLSSNGNVTESGCKECEELEEKNIKEFLQSFVHIVQMFINTGGGGSGHHHHHHHHGGGLNDIFEAQKIEWHE
Consider B12, for which the Kd in experiment [1] was 98 nM; in experiment [2] it was more than 500 nM.

B13: hIL-15 V49R/N1T (ligand)
chain: TWVNVISDLKKIEDLIQSMHIDATLYTESDVHPSCKVTAMKCFLLELQRISLESGDASIHDTVENLIILANNSLSSNGNVTESGCKECEELEEKNIKEFLQSFVHIVQMFINTGGGGSGHHHHHHHHGGGLNDIFEAQKIEWHE
On to B13, for which the values for the Kd in experiment [1] and in experiment [2] were 104 nM and 249 nM, respectively.

B14: hIL-15 V49R/N72K (ligand)
chain: NWVNVISDLKKIEDLIQSMHIDATLYTESDVHPSCKVTAMKCFLLELQRISLESGDASIHDTVENLIILANKSLSSNGNVTESGCKECEELEEKNIKEFLQSFVHIVQMFINTGGGGSGHHHHHHHHGGGLNDIFEAQKIEWHE
Take B14: the figures for the Kd in experiment [1] and in experiment [2] were 101 nM and more than 500 nM, respectively.

B15: hIL-15 V49R/N1S (ligand)
chain: SWVNVISDLKKIEDLIQSMHIDATLYTESDVHPSCKVTAMKCFLLELQRISLESGDASIHDTVENLIILANNSLSSNGNVTESGCKECEELEEKNIKEFLQSFVHIVQMFINTGGGGSGHHHHHHHHGGGLNDIFEAQKIEWHE
As for B15, the Kd in experiment [1] is 140 nM; in experiment [2], 194 nM.

B16: hIL-15 V49R/N1D (ligand)
chain: DWVNVISDLKKIEDLIQSMHIDATLYTESDVHPSCKVTAMKCFLLELQRISLESGDASIHDTVENLIILANNSLSSNGNVTESGCKECEELEEKNIKEFLQSFVHIVQMFINTGGGGSGHHHHHHHHGGGLNDIFEAQKIEWHE
Consider B16, for which the Kd was found to be 105 nM in experiment [1] and 311 nM in experiment [2].

B17: hIL-15 V49R/N72S (ligand)
chain: NWVNVISDLKKIEDLIQSMHIDATLYTESDVHPSCKVTAMKCFLLELQRISLESGDASIHDTVENLIILANSSLSSNGNVTESGCKECEELEEKNIKEFLQSFVHIVQMFINTGGGGSGHHHHHHHHGGGLNDIFEAQKIEWHE
For the molecule B17, the Kd was found to be 118 nM in experiment [1] and 182 nM in experiment [2].

B18: hIL-15 V49R/N1H (ligand)
chain: HWVNVISDLKKIEDLIQSMHIDATLYTESDVHPSCKVTAMKCFLLELQRISLESGDASIHDTVENLIILANNSLSSNGNVTESGCKECEELEEKNIKEFLQSFVHIVQMFINTGGGGSGHHHHHHHHGGGLNDIFEAQKIEWHE
For the molecule B18, the Kd in experiment [1] amounted to 151 nM; in experiment [2], 235 nM.

B19: hIL-15 V49R/N4E (ligand)
chain: NWVEVISDLKKIEDLIQSMHIDATLYTESDVHPSCKVTAMKCFLLELQRISLESGDASIHDTVENLIILANNSLSSNGNVTESGCKECEELEEKNIKEFLQSFVHIVQMFINTGGGGSGHHHHHHHHGGGLNDIFEAQKIEWHE
Regarding B19, the Kd is 79.8 nM in experiment [1] and 311 nM in experiment [2].

B20: hIL-15 V49R/N1K (ligand)
chain: KWVNVISDLKKIEDLIQSMHIDATLYTESDVHPSCKVTAMKCFLLELQRISLESGDASIHDTVENLIILANNSLSSNGNVTESGCKECEELEEKNIKEFLQSFVHIVQMFINTGGGGSGHHHHHHHHGGGLNDIFEAQKIEWHE
Regarding B20, the Kd in experiment [1] is 264 nM; in experiment [2], more than 500 nM.

B21: hIL-15 V49R/N1Q (ligand)
chain: QWVNVISDLKKIEDLIQSMHIDATLYTESDVHPSCKVTAMKCFLLELQRISLESGDASIHDTVENLIILANNSLSSNGNVTESGCKECEELEEKNIKEFLQSFVHIVQMFINTGGGGSGHHHHHHHHGGGLNDIFEAQKIEWHE
Turning to B21, the results for the Kd in experiment [1] and in experiment [2] were 115 nM and more than 500 nM, respectively.

B22: hIL-15 V49R/N65K (ligand)
chain: NWVNVISDLKKIEDLIQSMHIDATLYTESDVHPSCKVTAMKCFLLELQRISLESGDASIHDTVEKLIILANNSLSSNGNVTESGCKECEELEEKNIKEFLQSFVHIVQMFINTGGGGSGHHHHHHHHGGGLNDIFEAQKIEWHE
As for B22, the figures for the Kd in experiment [1] and in experiment [2] were 201 nM and 193 nM, respectively.

B23: hIL-15 V49R/N4M (ligand)
chain: NWVMVISDLKKIEDLIQSMHIDATLYTESDVHPSCKVTAMKCFLLELQRISLESGDASIHDTVENLIILANNSLSSNGNVTESGCKECEELEEKNIKEFLQSFVHIVQMFINTGGGGSGHHHHHHHHGGGLNDIFEAQKIEWHE
On to B23, for which the Kd came out at 88.1 nM in experiment [1] and 233 nM in experiment [2].

B24: hIL-15 V49R/N4H (ligand)
chain: NWVHVISDLKKIEDLIQSMHIDATLYTESDVHPSCKVTAMKCFLLELQRISLESGDASIHDTVENLIILANNSLSSNGNVTESGCKECEELEEKNIKEFLQSFVHIVQMFINTGGGGSGHHHHHHHHGGGLNDIFEAQKIEWHE
B24: the Kd worked out at 81.5 nM in experiment [1] and 96.4 nM in experiment [2].

B25: hIL-15 V49R/N4L (ligand)
chain: NWVLVISDLKKIEDLIQSMHIDATLYTESDVHPSCKVTAMKCFLLELQRISLESGDASIHDTVENLIILANNSLSSNGNVTESGCKECEELEEKNIKEFLQSFVHIVQMFINTGGGGSGHHHHHHHHGGGLNDIFEAQKIEWHE
Regarding B25, the results for the dissociation constant Kd in experiment [1] and in experiment [2] were 98.6 nM and 429 nM, respectively.

Source of the values: patent publication US20210324028A1 (Pfizer, published 2021).
